{"source": "paper PMC8040518", "about": "(The Journal of Experimental Medicine, 2021)", "binders": {"B1": {"name": "POWV-80 mAb (antibody, V domains shown)", "VH": "EVKLVESEGGLVQPGSSMKVSCTASGFTFSHYYMAWVRQVPEKGLEWVANINYDGTSTYYLDSLKSRFIISRDNANNILYLQMSSLKSEDTAIYYCAREEGYGNPYPYWYFDVWGTGTTVTVSS", "VL": "QIVLTQSPAILSASPGEKVTMTCRASSSVSYMHWYQQKPGSSPKSWIYATSNLASGVPTRFSGSGSGTSYSLTISRVEAEDAATYYCQQRSSNPRTFGGGTKLEIK"}}, "molecular_target": "LGTV E protein (strain TP21) in C-prM-E–transfected HEK-293T cells (Langat virus strain TP21, UniProt Q9IG40)", "assay": "cell-based or functional assay", "data": [{"binder": "B1", "values": [{"measurement": "EC50 of neutralization of LGTV, FRNT in Vero cells", "value": 10.4, "unit": "µg/mL"}]}]}
